Experiments:
[1] = target: His-Rep 1–362 (full-length Rep protein of Mungbean yellow mosaic India virus) (Mungbean yellow mosaic India virus (MYMIV)); test: sucrose gradient centrifugation
[2] = target: His-Rep 120–362 (Mungbean yellow mosaic India virus (MYMIV)); test: sucrose gradient centrifugation

| Substance | stoichiometry N [1] | stoichiometry N [2] |
| --- | --- | --- |
| His-Rep 1–362 (full-length Rep protein of Mungbean yellow mosaic India virus) (enzyme) | 24 |  |
| His-Rep 120–362 (domain or fragment) |  | 24 |

— publication PMC1669733
